Laboratory results: the supplement of paper PMC12338614
± gives the uncertainty stated by the source.

B1: library; numbered along this chain (parent)
chain: MEVVDPQQLGMFTEGELMSVGMDTFIHRIDSTEVIYQPRRKRAKLIGKYLMGDLLGEGSYGKVKEVLDSETLCRRAVKILKKKKLRRIPNGEANVKKEIQLLRRLRHKNVIQLVDVLYNEEKQKMYMVMEYCVCGMQEMLDSVPEKRFPVCQAHGYFCQLIDGLEYLHSQGIVHKDIKPGNLLLTTGGTLKISDLGVAEALHPFAADDTCRTSQGSPAFQPPEIANGLDTFSGFKVDIWSAGVTLYNITTGLYPFEGDNIYKLFENIGKGSYAIPGDCGPPLSDLLKGMLEYEPAKRFSIRQIRQHSWFRKKHPPAEAPVPIPPSPDTKDRWRSMTVVPYLEDLHGADEDEDLFDIEDDIIYTQDFTVPGQVPEEEASHNGQRRGLPKAVCMNGTEAAQLSTKSRAEGRAPNPARKACSASSKIRRLSACKQQ

Variants of: B1
Experiment: STK11 functional score (HeLa growth suppression), rescaled enrichment; synonymous median = 1, nonsense median = 0 (normalised score)
Details: with HeLa; variant type: missense
In short: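 The functional score takes the post/pre-selection log ratio, corrects it to wild type, rescales it to synonymous and nonsense medians, and merges it over codons and replicate transfections, with error from bootstrapping. Counts came from tiled gDNA amplicons sequenced on NextSeq (~2 million reads per tile). The libraries were POPCode codon-randomised, codon-optimised STK11 integrated by Bxb1 at an AAVS1 landing pad in HeLa, three regions with three transfections each.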

STK11 functional score, by site and new letter:
N259: W 0.92 ± 0.36; T 1.32 ± 0.51; S 1.34 ± 0.38; Y 1.1 ± 0.1; R 1.13 ± 0.46; F 1.25 ± 0.24; C 1.12 ± 0.42; G 0.492 ± 0.49; L 1.26 ± 0.31; A -0.00474 ± 0.089; D 1.12 ± 0.63; H 1.66 ± 0.14; E 1.47 ± 0.34; V 0.437 ± 0.1; M 1.35 ± 0.12
E256: Y 1.4 ± 0.16; V 0.873 ± 0.33; D 1.63 ± 0.4; A 0.686 ± 0.64; F 0.982 ± 0.22; Q 1.47 ± 0.56; C 0.541 ± 0.33; I 1.04 ± 0.77; S 1.36 ± 0.4; G 1.17 ± 0.28; W 1.65 ± 0.13; R 1.48 ± 0.19; L 1.52 ± 0.31
F255: W 0.941 ± 0.1; S 1.14 ± 0.19; I 1.36 ± 0.38; Y 1.25 ± 0.79; L 0.5 ± 0.21; N 0.322 ± 0.14; H 0.97 ± 0.25; T 0.94 ± 0.13; M 0.792 ± 0.1; G 0.519 ± 0.14; A 1.31 ± 0.29; P 0.517 ± 0.11; D 0.348 ± 0.1; V 1.09 ± 0.13; E 0.827 ± 0.37; R 0.632 ± 0.2; C 0.921 ± 0.12; Q 0.98 ± 0.44
K269: V 1.22 ± 0.43; S 1.41 ± 0.19; N 1.23 ± 0.35; P 1.26 ± 0.41; H 1.49 ± 0.22; F 0.789 ± 0.12; Y 1.33 ± 0.36; I 1.28 ± 0.17; Q 1.5 ± 0.53; R 1.22 ± 0.28; C 1.09 ± 0.35; G 1.46 ± 0.45; L 1.45 ± 0.2; A 0.886 ± 0.2; W 0.728 ± 0.12; T 1.47 ± 0.2
G257: I 1.66 ± 0.44; Y 1.57 ± 0.13; R 0.694 ± 0.29; S 1.39 ± 0.13; E 1.32 ± 0.47; A 1.25 ± 0.6; L 0.765 ± 0.18; V 1.23 ± 0.17
P254: L 0.528 ± 0.12; A -0.109 ± 0.13; W 0.882 ± 0.1; R 0.199 ± 0.14; H 1.41 ± 0.15; V 0.86 ± 0.31; G 0.298 ± 0.11; Y 0.0833 ± 0.12; C 0.821 ± 0.47; S 0.653 ± 0.17; F 0.445 ± 0.29; T 0.929 ± 0.1
Y272: P 1.38 ± 0.45; H 1.08 ± 0.32; R 0.701 ± 0.25; L 0.641 ± 0.46; V 0.735 ± 0.11; A 1.33 ± 0.22; E 1.28 ± 0.18; W 1.01 ± 0.2; I 1.08 ± 0.3; C 1.13 ± 0.71; N 1.71 ± 0.45; F 1.27 ± 0.13; T 1.44 ± 0.45; M 1.63 ± 0.14; S 0.837 ± 0.15; G 1.2 ± 0.21
I274: R 0.816 ± 0.21; Y 1.16 ± 0.29; S 0.98 ± 0.21; D 0.889 ± 0.3; G 1.05 ± 0.26; L 1.02 ± 0.16; W 0.0744 ± 0.12; H 0.363 ± 0.074; Q 1.62 ± 0.2; C 0.973 ± 0.19; V 0.7 ± 0.15; A 0.907 ± 0.16; N 1.27 ± 0.51; M 0.974 ± 0.14; F 1.13 ± 0.43
Y253: F 0.587 ± 0.17; C 0.457 ± 0.26; S 0.394 ± 0.12; G 0.758 ± 0.17; D 0.768 ± 0.37; L 1.27 ± 0.12; V 1.56 ± 0.22; E 1 ± 0.41; W 0.66 ± 0.1
Y261: S 0.699 ± 0.16; W 0.609 ± 0.091; L 0.609 ± 0.14; A 1.25 ± 0.43; I 1.62 ± 0.16; P 1.15 ± 0.38; H 0.771 ± 0.86; F 0.449 ± 0.14; C 0.999 ± 0.41; T 1.04 ± 0.29; V 1.22 ± 0.4; G 0.901 ± 0.2
F264: R 0.806 ± 0.25; G 1.01 ± 0.21; V 0.678 ± 0.21; E 1.57 ± 0.26; T 0.96 ± 0.56; I 0.658 ± 0.51; Y 1.06 ± 0.16; P 1.4 ± 0.39; A 1.16 ± 0.36; S 0.597 ± 0.21; L 1.1 ± 0.13; W 0.216 ± 0.074
S271: I 1.15 ± 0.3; D 1.64 ± 0.2; P 0.317 ± 0.1; M 1.5 ± 0.21; V 0.986 ± 0.14; R 1.04 ± 0.27; T 1.17 ± 0.2; A 1.11 ± 0.31; C 0.412 ± 0.07; Q 1.08 ± 0.65; Y -0.251 ± 0.55; W 0.443 ± 0.6; L 1.39 ± 0.29; G 0.976 ± 0.3; F 1.03 ± 0.34
G251: Y 0.258 ± 0.24
K262: M 1.17 ± 0.86; D 1.38 ± 0.2; R 1.18 ± 0.47; A 1.23 ± 0.36; I 0.763 ± 0.14; V 1.29 ± 0.3; P 1.56 ± 0.25; L 1.13 ± 0.13; W 1.05 ± 0.19; Y 1.29 ± 0.3; N 1.33 ± 0.53; E 1.31 ± 0.85; T 1.08 ± 0.31; G 1.35 ± 0.21; H 1.52 ± 0.42; F 0.714 ± 0.098; S 0.994 ± 0.17
G270: M 0.994 ± 0.46; P 1.43 ± 0.19; A 0.849 ± 0.32; E 1.42 ± 0.72; I 0.821 ± 0.36; N 1.4 ± 0.35; H 1.07 ± 0.31; V 1.26 ± 0.25; F 1.14 ± 0.39; C 1.41 ± 0.31; L 0.945 ± 0.13; Q 1.16 ± 0.38; R 1.43 ± 0.39; D 1.52 ± 0.2; T 1.09 ± 0.15; S 1.47 ± 0.17
D258: W 1.5 ± 0.51; L 0.539 ± 0.12; S 1.42 ± 0.44; R 1.29 ± 0.39; C 1.16 ± 0.32; E 0.739 ± 0.3; A 1.33 ± 0.76; M 0.663 ± 0.18; Y 1.49 ± 0.2; F 0.78 ± 0.28; V 1.39 ± 0.37; G 1.47 ± 0.15; H 1.62 ± 0.55
I260: W 1.21 ± 0.38; T 1.33 ± 0.69; M 1.32 ± 0.26; L 1.28 ± 0.27; A 0.468 ± 0.26; S 1.44 ± 0.32; D 1.16 ± 0.21; G 1.1 ± 0.25; N 1.67 ± 0.52; R 1.66 ± 0.16; F 0.763 ± 0.1; V 1.07 ± 0.18; E -0.179 ± 0.42
L263: T 1.22 ± 0.17; V 0.76 ± 0.22; R 1.39 ± 0.24; E 1.04 ± 0.17; D 0.549 ± 0.14; Q 0.281 ± 0.62; G 0.983 ± 0.18; I 1.57 ± 0.28; A 0.39 ± 0.12; F 0.857 ± 0.29; C 1.11 ± 0.25; M 0.891 ± 0.17; S 1.18 ± 0.19; W -0.0482 ± 0.1
P275: F 0.767 ± 0.26; D 1.63 ± 0.17; E 0.52 ± 0.15; V 0.683 ± 0.34; S 0.957 ± 0.27; L 0.807 ± 0.099; W 0.995 ± 0.1; Y 0.943 ± 0.55; G 1.14 ± 0.41; N 1.41 ± 0.16; R 1.12 ± 0.28; T 0.875 ± 0.18; I 1.17 ± 0.49; K 1.45 ± 0.32; M 0.445 ± 0.12; A 0.693 ± 0.35
A273: L 0.931 ± 0.1; T 1.46 ± 0.34; W 1.65 ± 0.18; C 0.584 ± 0.098; K 0.589 ± 0.23; M 0.796 ± 0.8; F 0.993 ± 0.43; G 0.649 ± 0.24; N 1.3 ± 0.24; P 1.4 ± 0.28; V 0.694 ± 0.13; D 0.919 ± 0.14; S 0.646 ± 0.15; R 1.13 ± 0.38; I 1.46 ± 0.34; H 0.901 ± 0.3
I267: W 0.777 ± 0.086; N 0.995 ± 0.36; P 0.26 ± 0.21; T 1.11 ± 0.46; S 1.16 ± 0.29; L 0.603 ± 0.12; A 1 ± 0.34; R 1.01 ± 0.33; G 0.602 ± 0.3; D 0.629 ± 0.22; M 0.815 ± 0.11; H 1.45 ± 0.35; F 0.659 ± 0.071; V 1.09 ± 0.29
N266: W 0.574 ± 0.1; G 0.477 ± 0.1; S 0.965 ± 0.15; H 1.29 ± 0.56; P 1.09 ± 0.12; A 1.45 ± 0.15; R 1.3 ± 0.14; L 0.675 ± 0.16; E 0.101 ± 0.94; T 0.876 ± 0.28; D 1.13 ± 0.43; C 0.945 ± 0.51; M 0.331 ± 0.095; K 0.318 ± 0.26; V 0.844 ± 0.18; I 1.38 ± 0.35
L252: F 1.07 ± 0.39; W 1.42 ± 0.17; V 1.3 ± 0.094; Y 0.274 ± 0.59; S 1.5 ± 0.22; I 1.54 ± 0.12; M 0.771 ± 0.35
G268: R 1.44 ± 0.2; H 1.15 ± 0.61; C 1.25 ± 0.42; Y 1.32 ± 0.19; A 0.916 ± 0.13; I 1.65 ± 0.17; Q 1.26 ± 0.61; P 1.07 ± 0.18; N 1.03 ± 0.38; L 1.56 ± 0.23; S 1.55 ± 0.18; M 0.465 ± 0.33; T 1.52 ± 0.16; F 1.16 ± 0.24; D 1.53 ± 0.19; V 0.743 ± 0.19
E265: C 1.67 ± 0.28; V 1.41 ± 0.37; D 1.31 ± 0.49; T 1.56 ± 0.25; S 1.49 ± 0.32; Q 0.752 ± 0.43; A 1.3 ± 0.53; R 1.41 ± 0.3; W 1.57 ± 0.21; F 1.08 ± 0.34; M 1.25 ± 0.16; L 1.18 ± 0.42; I 1.42 ± 0.31; G 0.962 ± 0.17
